These results are taken from paper PMC7126611.

This data set relates to His-PTB (polypyrimidine tract-binding protein, pETPTB), P26599-1. Kind of data set: EMSA.

In turn, “GGGCCAGACACUGAUUAUAUGGUUCAUAUGGGUAAUUACCUUCCCUAGGCUAAGGACUAACUGGUAUAUACCAUAAUUAAA [SHFV 3'(+)NCR RNA]” returned a Kd of 7 nM.

In general, Kd refers to the concentration at which binding is half-saturated. High values mean weaker binding, low ones tighter binding.
